{
  "source": "patent US8809529B2",
  "about": "“Imidazo[1,2-α]pyrazine derivatives” (Promega Corporation, priority 2010, dated 2014)",
  "molecules": {"B1": {"name": "L27V: 9B8 opt+K33N variant with L27V, T39T, K43R, Y68D (protein)", "chain": "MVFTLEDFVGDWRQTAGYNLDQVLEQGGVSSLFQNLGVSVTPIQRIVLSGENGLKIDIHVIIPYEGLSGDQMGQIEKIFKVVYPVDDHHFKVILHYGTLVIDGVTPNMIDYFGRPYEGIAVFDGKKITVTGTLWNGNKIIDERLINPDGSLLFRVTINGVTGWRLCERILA"}, "B2": {"name": "9B8: IV variant with Q18L, F68Y, L72Q, M75K; in Tables 12, 22, 23, 26, 27 “9B8” stands for 9B8 opt (protein)", "chain": "B1 chain with V29L, N35K, R45K, D70Y"}, "B3": {"name": "9B8 opt: codon optimized version of the 9B8 variant (protein)", "chain": "B1 chain with V29L, N35K, R45K, D70Y"}},
  "key": {"[1]": {"experiment": "Stability of secreted OgLuc variants in saved media", "assay_type": "physicochemical", "conditions": "secreted variant in media", "experimental": "To determine if the secretion signal sequence of OgLuc facilitates its secretion, the OgLuc variants 9B8, V2 and L27V were cloned into pF4Ag containing an N-terminal OgLuc secretion signal sequence. The variants were also cloned into vectors without the secretion signal sequence. CHO or HeLa cells were then plates at 100,000 cells/well in 1 mL F12 media with 10% FBS and 1× sodium pyruvate (CHO cells) or DMEM with 10% FBS and 1× sodium pyruvate (HeLa cells) into 12-well plates and incubated overnight at 37° C., 5% CO2.\nAfter the overnight incubation, the cells were transfected with 1 μg plasmid DNA containing 9B8, V2, or L27V with or without the secretion signal sequence using the TRANSIT®-LT1 transfection reagent (Minis Bio) and OPTI-MEM® media (Invitrogen). The cells were again incubated overnight at 37° C., 5% CO2.\nAfter the second overnight incubation, the media was removed and saved for analysis. […] To 10 μL of cell lysate or saved media from each sample, 50 μL assay buffer with 40 μM FBI-3939 was added, and luminescence measured as described above.\nTo determine the stability of the secreted variants, 150 μL aliquots of the saved media from each sample was placed at 37° C. or 50° C. The aliquots were then removed at different time points ([…]), frozen on thy ice, and kept at −20° C. until assayed. To assay for stability, the media aliquots were thawed to room temperature, and 10 μL of each aliquot was mixed with assay buffer with PBI-3939 (pH 6.0) as described above. Luminescence was measured as above, and the half-life (t50) determined (Table 34)."}, "[2]": {"experiment": "Km of L27V reversion variants for native coelenterazine", "assay_type": "biochemical", "experimental": "Relative activities <1 indicate the reversion is detrimental compared to the residue at that site in the L27V variant. Relative activities >1 indicate the reversion is favorable for activity compared to the residue at that site in the L27V variant. Some additional data on these mutants indicated the following: 166K, 54F, 54A and L27V were tested for thermal stability. The T1/2 60° C. for 166K, 54F, and 54A were 87, 74, and 33%, respectively, indicating these substitutions cause a reduction in thermal stability. […] This indicates higher substrate affinity for L27V, particularly for the position 54 substitutions."}, "[3]": {"assay_type": "biochemical, E. coli", "experimental": "The signal stability of 15C1 with PBI-3945 and 9B8 with PBI-3889 was measured and compared to IV. E. coli containing plasmid DNA encoding 15C1, 9B8, or IV were grown and induced as described previously in 8-well replicates. Cells were lysed using a lysis buffer containing of 300 mM HEPES pH 8.0, 0.3× Passive Lysis Buffer (“PLB”; Promega Corp. Cat. No. E194A), 0.3 mg/mL lysozyme, and 0.003 U/μL RQ1 DNase. Lysates were diluted 1:1000 in lysis buffer and measured for luminescence using a TECAN® INFINITE® F500 luminometer. Measurements were taken immediately after the addition to 10 μL of diluted lysate sample of 50 μL of “Glo” 0.5% TERGITOL assay buffer (“0.5% TERGITOL”), which contained 150 mM KCl, 1 mM CDTA, 10 mM DTT, 100 mM thiourea, 0.5% TERGITOL® NP-9 (v/v), and 20 μM of either novel coelenterazines PBI-3945 or PBI 3889.\nThe signal stability of the variants was determined by re-reading the plate every 30 seconds for a length of time after the addition of the assay buffer to the sample. The signal half-life was determined from these measurements using methods known in the art. The average signal half-life was compared between the variants and IV. […] At t=10 min, luminescence for 15C1 with PBI-3945 and 9B8 with PBI-3889 were equivalent.\nE. coli lysates containing the variants were prepared and analyzed as described previously except the assay buffer contained 0.25% TERGITOL® NP-9 (v/v), 100 mM MES pH 6.0, 1 mM CDTA, 150 mM KCl, 35 mM thiourea, 2 mM DTT, and 20 μM PBI-3939."}, "[4]": {"assay_type": "physicochemical, E. coli", "conditions": "for ½ life: 50° C.", "experimental": "Lysates of E. coli containing 15C1, 9B8, 9F6, 8A3 or IV and E. coli expressing hRL (SEQ ID NO: 30 and 31) were prepared from induced cultures as described previously. Lysate samples were diluted 1:1000 with a buffer containing 10 mM HEPES pH 7.5 with 0.1% gelatin. Diluted lysate (100 μL) samples, in replicate 96-well plates, were incubated at 50° C. At different time points, plates were placed at −70° C. (minus seventy degrees Celsius). Prior to measuring the luminescence as described previously, each plate was thawed at room temperature, i.e., 22° C., for 10 min. Samples (10 μL of each thawed sample) were assayed using native coelenterazine as a substrate. Luminescence was measured immediately after addition of assay buffer for each time point plate. The half-life of the protein, which indicated protein stability, was calculated from the luminescence data for each time point using methods known in the art."}, "[5]": {"system": "cAMP response element (CRE)", "experiment": "CRE transcriptional reporter, forward transfection, HEK293 cells", "assay_type": "cell-based, human", "design": "Response: scale not given here", "conditions": "for baseline: 10 nM FSK; for baseline / RLU (10 μM FSK): 3 h", "experimental": "HEK293 cells were plated at 15,000 cells/well in six 96-well tissue culture plates. Cells were grown in 100 μL of DMEM+10% FBS+1× non-essential amino acids (NEAA) and incubated overnight at 37° C. The cells were transiently transfected with either 10 ng or 100 ng plasmid DNA/well of pGL4.29 9B8 opt, pGL4.29 9B8 opt-P, or pGL4.29. Plasmid DNA was mixed with 850 μL of OPTI-MEM® (Invitrogen) and 32.4 μL of FUGENE® HD transfection reagent (Promega Corp.) and incubated at room temperature for 10 min. Eight μL of the transfection/reporter DNA mixture was added to the appropriate wells (2 constructs/plate). Cells were incubated for 4 hrs at 37° C. The medium was replaced with OPTI-MEM®+0.5% dialyzed FBS+1×NEAA+1× sodium pyruvate+1× Penn-Strep and incubated overnight at 37° C.\nA lytic reagent containing 100 mM MES pH 6.1, 1 mM CDTA, 150 mM KCl, 35 mM thiourea, 2 mM DTT, 0.25% TERGITOL® NP-9 (v/v), 0.025% MAZU® DF 204, and 20 μM PBI-3939 was added to the cells containing pGL4.29 9B8 opt or pGL4.29 9B8 opt-P and allowed to incubated for 10 min at room temperature (100 μL lytic reagent added to 100 μL cells). ONE-GLO™ assay reagent (Promega Corp.) was added to cells containing pGL4.29 and used according to the manufacturer's protocol (100 μL reagent added to 100 μL cells). Luminescence was measured on a GLOMAX® Luminometer."}},
  "note": "Residue numbers refer to the chain shown, from its start. Numbers in names are those of the source. Like-named read-outs stand apart in the source and are kept apart here.",
  "data": [
    {"molecule": "B1", "values": [
      {"measurement": "½ life 37° C.", "setting": "[1]", "value": 17, "unit": "days"},
      {"measurement": "½ life 50° C.", "setting": "[1]", "value": 11, "unit": "h"},
      {"measurement": "Km", "setting": "[2]", "value": 16, "unit": "µM"},
      {"measurement": "signal half life", "setting": "[3]", "value": 1.9, "unit": "h"}
    ]},
    {"molecule": "B2", "values": [
      {"measurement": "½ life", "setting": "[4]", "value": 5.8, "unit": "h"},
      {"measurement": "½ life", "setting": "[4]; native coelenterazine as substrate", "value": 5.777, "unit": "h"},
      {"measurement": "% remaining at t = 4 hrs", "setting": "[4]; 4 h", "value": 61, "unit": "%"},
      {"measurement": "½ life 37° C.", "setting": "[1]", "value": 8, "unit": "days"},
      {"measurement": "½ life 50° C.", "setting": "[1]", "value": 3, "unit": "h"},
      {"measurement": "signal half life", "setting": "[3]", "value": 1.23, "unit": "h"},
      {"measurement": "signal half-life", "setting": "[3]", "value": "at least 30 min"}
    ]},
    {"molecule": "B3", "values": [
      {"measurement": "Response", "setting": "[5]; 10 ng DNA for transfection", "value": 67},
      {"measurement": "baseline", "setting": "[5]; 10 ng DNA for transfection", "value": 192810},
      {"measurement": "RLU (10 μM FSK)", "setting": "[5]; 10 ng DNA for transfection", "value": "12,926,465 RLU"},
      {"measurement": "Response", "setting": "[5]; 100 ng DNA for transfection", "value": 34},
      {"measurement": "baseline", "setting": "[5]; 100 ng DNA for transfection", "value": "3,078,418"},
      {"measurement": "RLU (10 μM FSK)", "setting": "[5]; 100 ng DNA for transfection", "value": "104,687,723 RLU"}
    ]}
  ]
}
